According to patent CN114106163A (ANYUAN MEDICINE SCIENCE AND TECH SHANGHAI LIMITED COMPANY, dated 2022):

Experiments:
[1] = biological target: T1, 刺突S蛋白-鼠Fc融合蛋白 (S-mFc) (SARS-CoV-2; mouse, UniProt P0DTC2 14-1213); experiment: FACS, blocking of S-mFc binding to 293T-ACE2 cells
T1 construct: domain: S蛋白全长区段

[2] = biological target: T2, SARS-CoV-2 S1蛋白 (ACRO Biosystems) (SARS-CoV-2, UniProt P0DTC2 16-685); experiment: competition ELISA, S1 coated, HRP-hACE2-Fc as competitor
T2 construct: domain: S1

B1: 人源化抗体hS1B-30-3 (humanized antibody hS1B-30-3) (antibody, V domains shown)
VH: EVQLVESGGGLVQPGGSLRLSCAASGFTFSDAWMDWVRQAPGKGLDWVAQIRNKANSHATNYADSVKGRFTISRDDSKNSVYLQMNSLKTEDTAVYYCIRGLTGYVLDYWGQGTTVTVSS
VL: DIQMTQSPSSLSASVGDRVTITCKASQNVRTAVAWYQQKPGQSPKALIFLASNRHTGVPDRFSGSGSGTDFTLTISSLQPEDFATYFCLQHWNYPLTFGGGTKVEIKR
Binder B1 has an IC50 [1] of 0.00691 µg/mL and an EC50 [2] of 0.0331 µg/mL.
